Measured values from patent US11623951B2, “Antibodies to R-spondin 3” (National Health Research Institutes, priority 2017, dated 2023).
Values joined by “and” are separate entries in the source; they are usually repeats but may differ in a detail not shown here. Equal values may be shown once. Each block holds one molecule with its values, some of them ahead of it.

Key:
[1] = test system: human SNU-1411 colon xenograft tumor; experiment: SNU-1411 colon xenograft tumor carrying PTPRK(e13)-RSPO3(e2) fusion transcript; assay type: in vivo, mice
Description: FIG. 15 is a set of graphs showing anti-tumor efficacy of in human SNU-1411 colon xenograft tumor carrying PTPRK(e13)-RSPO3(e2) fusion transcript. Tumor cells were injected into the mice and treatments were initiated when the tumors reaches 200 mm^3. Antibodies were given at 25 mg/kg once every other week (Q2W) and paclitaxel at 20 mg/kg once every week (Q1W). Both antibodies and […] were administered by intravenous injection. Paclitaxel was given from day 1 to day 32 and combination groups from day 1 to day 46. Both antibodies and paclitaxel were administered by intravenous injection. For each treatment cycle, antibodies were given on day 1 and paclitaxel on day 3. Tumor and body weight measurements were taken on the indicated days. Mean±SEM. *: p<0.05 vs. control mAb by one-way ANOVA followed by Tukey's post-test comparison.
To determine the effect of antibodies on SNU-1411 xenograft tumor, tumor-bearing animals were randomized and treatment began when mean tumor volumes reached approximately 150-200 mm^3. Antibodies were given once every other week (Q2W) and paclitaxel was administered once a week (Q1W). Both antibody and paclitaxel were administered intravenously. Tumor growth was measured twice a week by an electronic caliper. Tumor volumes were calculated with the formula (L×W^2)/2, where L was the longest and W was the shortest axis of the tumor. Animal weights were recorded once a week. Mice were examined frequently for overt signs of any adverse drug-related side effects. At the end of the study, all the mice were euthanized.

RSPO1, 2, 3, and 4 = experiment: Antigen-binding ELISA, selectivity among RSPO1-4
Text: FIG. 3 is a set of graphs showing Anti-RSPO3 hybridoma antibodies reactivity measured by ELISA. These hybridoma antibodies were reacted with RSPO1-4 antigen immunoblots, which reflect with the RSPO3 antigen. (A) A1, A2, A4, A5, A6, and A9 clones; and (B) B1, B3, B4, B8, and B9 clones.
To assess the RSPO-binding capability of antibodies, purified antibodies were reacted with RSPO1, 2, 3, and 4 on immunoblots. To perform antigen-binding ELISA assay, 96-well high binding polystyrene plates (Corning) were coated with 2 μg/ml of recombinant RSPO3 preparation in the capture buffer by overnight incubation at 4° C. Coated plates were washed twice with PBS supplemented with 0.05% Tween 20 (PBST). The plates were blocked with PBST—10% BSA and assayed with ELISA standard protocol for 1 h at room temperature.

[2] = test system: RSPO3-Wnt signaling (hRSPO3), MDA-MB436 TCF/LEF-Luc cells; experiment: TCF/LEF-Luc WNT reporter assay in MDA-MB436 cells stimulated by Wnt3a plus human RSPO3; assay type: cell-based; conditions: MDA-MB436 reporter cell line
Description: FIG. 4 is a set of graphs showing RSPO3 Abs targeting the canonical Wnt signaling and in vitro testing for inhibition of β-catenin activity. (A) A1, A2, A4, A5, A6, and A9 clones; (B) B1, B3, B4, B8, and B9 clones; and (C) Dose-response effect of elevated A4 and A6 clones on RSPO-Wnt signaling. MDA-MB436 TCF/LEF-Luc cells were incubated with a combination of Wnt3a (20 ng/mL) and RSPO3 (50 ng/mL) in the presence of 20 μg/mL anti-RSPO3 antibodies clone A1, A2, A4, A5, A6, A9 or 131R002. As controls, cells were incubated with a combination of Wnt3a and RSPO3, Wnt3a only, RSPO3 only, or with no addition. The cells were incubated for 16 hours and the luciferase activity assay was performed using One-Glo Luciferase Assay System.
FIG. 6 is a set of graph showing that anti-RSPO3 Ab inhibits WNT reporter activity stimulated by combination of Wnt3a and RSPO3. […] The cells were incubated for 16 hours. The luciferase activity assay was performed using One-Glo Luciferase Assay System.
Wnt signaling leads to β-catenin/TCF dependent transcriptional responses. MDA-MB436-TCF/LEF-Luc cells, a gift from Dr. Kelvin Kun-Chih Tsai, were employed to monitor the activity of Wnt signal transduction pathways. See, e.g., Wang et al. (2013). Gastroenterology (145): 1110-1120. In brief, MDA-MB436-TCF/LEF-Luc cells were seeded in black flat bottom 96 well culture plates (Costar) in RSPO Medium supplemented with 10% FBS and incubated overnight at 37° C., 5% CO2. 24 hours after incubation, cells were treated with anti-RSPO3 ab, 20 ng/ml WNT3a (R&D system) and RSPO ligands (Peprotech Systems) where appropriate and further incubated for 16 hours. Luciferase activity was measured using Bright-Glo Luciferase Assay System (Promega).

[3] = test system: hRSPO3 overlapping linear peptides; experiment: PepSet ELISA epitope mapping with linear 10-mer peptides of RSPO3; assay type: binding, human; conditions: antibody 10 μg/ml
Text: FIG. 8 is a set of graphs showing mapping of the α-RSPO3 Ab epitopes on RSPO3 protein by Pep-set. These histograms represent the ability of each 10-mer oligopeptide to bind the RSPO3 Abs 131R010(A), 131R002 (B), and hybridoma A6 (C) as indicated in the figure. QNASRGRRQR (SEQ ID NO: 74); ASRGRRQRRM (SEQ ID NO: 75); RGRRQRRMHP (SEQ ID NO: 84); RRQRRMHPNV (SEQ ID NO: 76); CLSCKPRLFF (SEQ ID NO: 77); SCKPRLFFAL (SEQ ID NO: 78); ERGKKGRERK (SEQ ID NO: 79); GKKGRERKRK (SEQ ID NO: 80); KGRERKRKKP (SEQ ID NO: 81); RERKRKKPNK (SEQ ID NO: 82); RENKQQQKKR (SEQ ID NO: 83).
ELISA for PepSet library was employed to determine α-RSPO3 hB1 antibodies and RSPO3 binding epitope. […] The colorimetric reaction were then stop by 2N HCL and the optical density at 450 nm of each well were determined immediately.
To identify the binding epitopes of α-RSPO3 Abs, an overlapping peptide library (10-mer for each peptide, offset: 2 amino acid residues, total number of peptides to cover the mature hRSPO3:122) derived from hRSPO3 amino sequences was prepared by Mimotope, Inc. The binding of α-RSPO3 mAbs to the overlapping peptides derived from hRSPO3 was measured. […] According to the epitope mapping results using linear peptides (FIG. 8 and Table 6), it was concluded that hB1 likely binds to a conformationlly-determined epitope on huRSPO3.

RSPO3 = target: T1, RSPO3 (Homo sapiens, UniProt Q9BXY4); experiment: Octet (ForteBio) kinetic binding to biotinylated RSPO3; conditions: 30° C.
T1 sequence (Q9BXY4 22-272): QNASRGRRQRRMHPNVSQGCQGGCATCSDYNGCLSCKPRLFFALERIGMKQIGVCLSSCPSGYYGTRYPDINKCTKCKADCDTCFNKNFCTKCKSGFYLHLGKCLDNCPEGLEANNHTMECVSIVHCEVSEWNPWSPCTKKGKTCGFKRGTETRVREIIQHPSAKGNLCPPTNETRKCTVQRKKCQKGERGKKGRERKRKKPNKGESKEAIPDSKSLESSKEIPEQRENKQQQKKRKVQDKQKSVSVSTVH
Description: The streptavidin-coated sensors were coated with 10 μg/ml of biotinylated RSPO3 as described in the handbook of ForteBio. Antibody concentrations were in the range of 0.75 and 93.8 nM. Quantitative kinetic binding analysis was performed with pH-adjusted PBS with 0.5% BSA. All steps were run at 30° C. with a continuous shaking speed at 1000 rpm.
To assess the RSPO3-binding affinities of the antibodies, kinetics assays were performed by the Octetsystems. The purified monoclonal antibodies (mAbs) from batch-A clones (A1, A4, A6, A9), along with the reference Ab-131R002, were examined for binding with RSPO-3.

Molecule: CC(=O)O[C@H]1C(=O)[C@@]2(C)[C@H]([C@H](OC(=O)c3ccccc3)[C@]3(O)C[C@H](OC(=O)[C@H](O)[C@@H](NC(=O)c4ccccc4)c4ccccc4)C(C)=C1C3(C)C)[C@]1(OC(C)=O)CO[C@@H]1C[C@@H]2O [Paclitaxel, reference compound]
Tumor volume on day 32 ([1]; antibodies 25 mg/kg Q2W, paclitaxel 20 mg/kg Q1W, i.v.): 949 ± 105 mm^3
Tumor volume on day 18 ([1]; antibodies 25 mg/kg Q2W, paclitaxel 20 mg/kg Q1W, i.v., mean±SEM): 329 ± 59 mm^3
Tumor volume on day 32 ([1]; antibodies 25 mg/kg Q2W, paclitaxel 20 mg/kg Q1W, i.v., listed as paclitaxel): 950 mm^3
Tumor volume reduction, % of Control mAb ([1]; day 18): 69% and 69 ± 6* %

selectivity in binding among RSPO1-4 in ELISA (RSPO1, 2, 3, and 4): only reacted with RSPO3
B1: B1: murine anti-RSPO3 mAb, IgG1; VH SEQ ID NO: 10, VL SEQ ID NO: 12 (antibody, V domains shown)
VH: QIQLQESGPGLVKPSQSLSLTCSVTGYSITSGYYWNWIRQFPGNKLEWMGYISYDGTNNYNPSLKDRISITRDTSMNQFFLKLNSVTTEDTATYYCSVLLIQYFNIWGAGTTVTVSS
VL: DIQMTQSPASLSASVGETVTITCRTSESVNNFLAWFHQKQGKSPQLLVYHAKTLADGVSSRFSGSGSGTQYSLKINSLQPEDFGNYYCQHFWSIPWTFGGGTKLEIKR
modifications: Heavy chain variable region; Light chain variable region
dose-dependent inhibitory effect in TCF/LEF-Luc reporter [2]: significantly inhibitory effect in a dose-dependent manner

selectivity in binding among RSPO1-4 in ELISA (RSPO1, 2, 3, and 4): only reacted with RSPO3
RMax (RSPO3): 0.3588
kdis (RSPO3): 0.000884 s⁻¹
kon (RSPO3): 32700 M⁻¹ s⁻¹
B2: A4: murine anti-RSPO3 mAb, IgG1; VH SEQ ID NO: 2, VL SEQ ID NO: 4 (antibody, V domains shown)
VH: QVQLQESGAELAKPGASVKMSCKASGHTLTYYWMHWVKQRPGQGLEWIGYIDPSTGYSEYNQRFEGKATLTADKSSGTVYMQLSSLTSEDSAVYYCARNGPFAYWGQGTLVTVSA
VL: DNVLTQSPAIMSASPGEKVTMTCSASSSVNYMYWYQQKPGSSPRLLIYDTSKLASGVPVRFSGSGSGTSYSLTISRMEAEDAATYYCQQWSSSPLTFGVGAKLEIKR
modifications: heavy chain variable region; Light chain variable region
Signal (binding to linear RSPO3 peptides) [3]: neither the A4 nor the hB1 mAbs showed detectable binding signals
dose-dependent inhibitory effect in TCF/LEF-Luc reporter [2]: significantly inhibitory effect in a dose-dependent manner

selectivity in binding among RSPO1-4 in ELISA (RSPO1, 2, 3, and 4): only reacted with RSPO3
RMax (RSPO3): 0.2151
kdis (RSPO3): 0.0025 s⁻¹
kon (RSPO3): 241000 M⁻¹ s⁻¹
B3: A6: murine anti-RSPO3 mAb, IgG2a; VH SEQ ID NO: 6, VL SEQ ID NO: 8 (antibody, V domains shown)
VH: QVQLQQSGAEIVRSGASVKLSCTASGFSITEYYIHWVKQRPDQGLEWIGMIDPENGDTDYAPKFQGKATMTADTSSNTVNLQLSSLTSEDTAVYYCHGPGPLEYWGQGTTLTVSS
VL: DIVMTQSPLSLPVSLGDQASISCRSSQSIVHSNGNTYLEWYLQKPGQSPNLLIYRVSNRFSGVPDRFNGSGSGTDFTLKISRVEPEDLGVYSCFQASHVPYTFGGGTKLEIKR
modifications: Heavy chain variable region; Light chain variable region
dose-dependent inhibitory effect in TCF/LEF-Luc reporter [2]: significantly inhibitory effect in a dose-dependent manner
